Reference: patent US20030044911A1

Key:
Assay in all cases: cell-based or functional assay
[1] = molecular target: N-type calcium channel formed by human brain α1B subunit together with rabbit β3 subunit, expressed in Xenopus oocytes (human; rabbit) (UniProt Q00975)
[2] = molecular target: rabbit cardiac α1C subunit, modified cDNA ΔN60 truncated by 60 amino acids at the N-terminal end, expressed in Xenopus oocytes (rabbit) (UniProt P15381)
[3] = molecular target: rat brain α1G subunit expressed from cRNA in Xenopus oocytes (rat) (UniProt O54898)

Chain of UniProt Q00975 (Q00975 whole entry, chain 1 of 2, the tested form may be a part): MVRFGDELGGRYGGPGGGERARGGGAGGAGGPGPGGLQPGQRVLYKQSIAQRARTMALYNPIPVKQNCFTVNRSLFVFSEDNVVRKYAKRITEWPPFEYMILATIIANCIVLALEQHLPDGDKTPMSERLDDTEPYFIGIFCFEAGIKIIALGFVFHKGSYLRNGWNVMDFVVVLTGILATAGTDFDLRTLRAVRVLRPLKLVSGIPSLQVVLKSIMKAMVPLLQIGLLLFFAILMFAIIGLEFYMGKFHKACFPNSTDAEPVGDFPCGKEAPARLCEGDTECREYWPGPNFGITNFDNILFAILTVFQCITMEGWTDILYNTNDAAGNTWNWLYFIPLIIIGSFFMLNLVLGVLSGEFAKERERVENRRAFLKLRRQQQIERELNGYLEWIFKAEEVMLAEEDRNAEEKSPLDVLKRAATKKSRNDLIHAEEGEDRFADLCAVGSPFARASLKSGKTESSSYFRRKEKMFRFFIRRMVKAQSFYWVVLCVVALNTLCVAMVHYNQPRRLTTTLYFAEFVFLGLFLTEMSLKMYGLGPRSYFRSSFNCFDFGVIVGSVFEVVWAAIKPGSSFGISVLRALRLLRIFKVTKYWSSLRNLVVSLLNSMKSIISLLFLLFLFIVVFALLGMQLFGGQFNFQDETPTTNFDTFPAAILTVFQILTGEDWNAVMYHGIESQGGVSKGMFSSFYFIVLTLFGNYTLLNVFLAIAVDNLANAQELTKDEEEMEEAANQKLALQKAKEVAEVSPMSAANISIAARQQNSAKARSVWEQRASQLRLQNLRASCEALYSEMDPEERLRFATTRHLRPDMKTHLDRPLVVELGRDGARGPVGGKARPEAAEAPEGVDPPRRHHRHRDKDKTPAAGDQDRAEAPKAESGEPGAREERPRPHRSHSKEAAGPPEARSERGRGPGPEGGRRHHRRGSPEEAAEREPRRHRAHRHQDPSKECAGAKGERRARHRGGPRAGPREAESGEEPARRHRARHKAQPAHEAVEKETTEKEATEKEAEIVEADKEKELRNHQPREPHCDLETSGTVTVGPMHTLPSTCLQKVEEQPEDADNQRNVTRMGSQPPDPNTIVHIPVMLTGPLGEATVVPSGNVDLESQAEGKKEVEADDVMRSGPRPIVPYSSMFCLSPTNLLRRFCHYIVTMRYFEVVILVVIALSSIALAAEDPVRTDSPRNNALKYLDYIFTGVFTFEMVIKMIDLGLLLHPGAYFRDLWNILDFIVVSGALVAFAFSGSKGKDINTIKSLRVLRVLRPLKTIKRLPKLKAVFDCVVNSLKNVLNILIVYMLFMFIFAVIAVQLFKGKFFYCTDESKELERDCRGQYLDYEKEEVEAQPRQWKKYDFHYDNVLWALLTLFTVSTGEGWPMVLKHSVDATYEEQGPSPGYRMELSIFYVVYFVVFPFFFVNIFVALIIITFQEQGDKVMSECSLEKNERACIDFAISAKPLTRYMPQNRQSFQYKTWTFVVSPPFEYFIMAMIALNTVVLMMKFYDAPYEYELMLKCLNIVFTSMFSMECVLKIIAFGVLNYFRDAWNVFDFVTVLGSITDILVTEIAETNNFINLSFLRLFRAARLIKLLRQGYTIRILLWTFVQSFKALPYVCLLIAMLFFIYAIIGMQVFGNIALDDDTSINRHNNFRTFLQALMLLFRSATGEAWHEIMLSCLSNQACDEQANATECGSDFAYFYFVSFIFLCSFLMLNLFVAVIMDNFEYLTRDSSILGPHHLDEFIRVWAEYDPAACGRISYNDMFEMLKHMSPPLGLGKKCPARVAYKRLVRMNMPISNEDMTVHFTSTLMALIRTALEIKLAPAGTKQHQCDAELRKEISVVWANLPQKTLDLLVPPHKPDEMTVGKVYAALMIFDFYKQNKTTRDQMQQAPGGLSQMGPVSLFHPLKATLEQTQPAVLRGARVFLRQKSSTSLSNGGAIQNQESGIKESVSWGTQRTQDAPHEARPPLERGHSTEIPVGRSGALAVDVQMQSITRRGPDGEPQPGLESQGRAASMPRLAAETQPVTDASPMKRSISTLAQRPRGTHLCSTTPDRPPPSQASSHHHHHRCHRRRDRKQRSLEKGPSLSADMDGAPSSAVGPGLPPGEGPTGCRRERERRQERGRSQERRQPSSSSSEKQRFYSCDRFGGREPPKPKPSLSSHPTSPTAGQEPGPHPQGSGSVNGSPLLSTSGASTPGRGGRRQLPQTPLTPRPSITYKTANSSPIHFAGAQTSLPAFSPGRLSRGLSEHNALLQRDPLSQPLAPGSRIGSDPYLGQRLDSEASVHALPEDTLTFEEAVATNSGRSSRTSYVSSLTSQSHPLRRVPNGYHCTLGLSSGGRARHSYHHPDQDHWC
Chain of UniProt Q00975 (P54286 whole entry, chain 2 of 2, further chain, the tested form may be a part): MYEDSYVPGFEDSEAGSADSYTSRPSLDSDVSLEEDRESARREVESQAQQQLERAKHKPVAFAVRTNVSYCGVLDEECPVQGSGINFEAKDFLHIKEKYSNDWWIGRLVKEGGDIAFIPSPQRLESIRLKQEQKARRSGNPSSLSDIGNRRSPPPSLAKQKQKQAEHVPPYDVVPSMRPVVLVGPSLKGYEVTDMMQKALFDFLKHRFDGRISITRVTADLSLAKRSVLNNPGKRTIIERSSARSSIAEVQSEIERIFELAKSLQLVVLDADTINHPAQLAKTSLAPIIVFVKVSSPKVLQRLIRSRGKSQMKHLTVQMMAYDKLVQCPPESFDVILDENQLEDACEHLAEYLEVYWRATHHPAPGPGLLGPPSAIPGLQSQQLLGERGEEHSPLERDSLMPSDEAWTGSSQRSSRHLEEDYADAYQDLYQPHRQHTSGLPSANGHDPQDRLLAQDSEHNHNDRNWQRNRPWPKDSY
Chain of UniProt P15381 (P15381 61-2171 limits assumed, stated change not applied): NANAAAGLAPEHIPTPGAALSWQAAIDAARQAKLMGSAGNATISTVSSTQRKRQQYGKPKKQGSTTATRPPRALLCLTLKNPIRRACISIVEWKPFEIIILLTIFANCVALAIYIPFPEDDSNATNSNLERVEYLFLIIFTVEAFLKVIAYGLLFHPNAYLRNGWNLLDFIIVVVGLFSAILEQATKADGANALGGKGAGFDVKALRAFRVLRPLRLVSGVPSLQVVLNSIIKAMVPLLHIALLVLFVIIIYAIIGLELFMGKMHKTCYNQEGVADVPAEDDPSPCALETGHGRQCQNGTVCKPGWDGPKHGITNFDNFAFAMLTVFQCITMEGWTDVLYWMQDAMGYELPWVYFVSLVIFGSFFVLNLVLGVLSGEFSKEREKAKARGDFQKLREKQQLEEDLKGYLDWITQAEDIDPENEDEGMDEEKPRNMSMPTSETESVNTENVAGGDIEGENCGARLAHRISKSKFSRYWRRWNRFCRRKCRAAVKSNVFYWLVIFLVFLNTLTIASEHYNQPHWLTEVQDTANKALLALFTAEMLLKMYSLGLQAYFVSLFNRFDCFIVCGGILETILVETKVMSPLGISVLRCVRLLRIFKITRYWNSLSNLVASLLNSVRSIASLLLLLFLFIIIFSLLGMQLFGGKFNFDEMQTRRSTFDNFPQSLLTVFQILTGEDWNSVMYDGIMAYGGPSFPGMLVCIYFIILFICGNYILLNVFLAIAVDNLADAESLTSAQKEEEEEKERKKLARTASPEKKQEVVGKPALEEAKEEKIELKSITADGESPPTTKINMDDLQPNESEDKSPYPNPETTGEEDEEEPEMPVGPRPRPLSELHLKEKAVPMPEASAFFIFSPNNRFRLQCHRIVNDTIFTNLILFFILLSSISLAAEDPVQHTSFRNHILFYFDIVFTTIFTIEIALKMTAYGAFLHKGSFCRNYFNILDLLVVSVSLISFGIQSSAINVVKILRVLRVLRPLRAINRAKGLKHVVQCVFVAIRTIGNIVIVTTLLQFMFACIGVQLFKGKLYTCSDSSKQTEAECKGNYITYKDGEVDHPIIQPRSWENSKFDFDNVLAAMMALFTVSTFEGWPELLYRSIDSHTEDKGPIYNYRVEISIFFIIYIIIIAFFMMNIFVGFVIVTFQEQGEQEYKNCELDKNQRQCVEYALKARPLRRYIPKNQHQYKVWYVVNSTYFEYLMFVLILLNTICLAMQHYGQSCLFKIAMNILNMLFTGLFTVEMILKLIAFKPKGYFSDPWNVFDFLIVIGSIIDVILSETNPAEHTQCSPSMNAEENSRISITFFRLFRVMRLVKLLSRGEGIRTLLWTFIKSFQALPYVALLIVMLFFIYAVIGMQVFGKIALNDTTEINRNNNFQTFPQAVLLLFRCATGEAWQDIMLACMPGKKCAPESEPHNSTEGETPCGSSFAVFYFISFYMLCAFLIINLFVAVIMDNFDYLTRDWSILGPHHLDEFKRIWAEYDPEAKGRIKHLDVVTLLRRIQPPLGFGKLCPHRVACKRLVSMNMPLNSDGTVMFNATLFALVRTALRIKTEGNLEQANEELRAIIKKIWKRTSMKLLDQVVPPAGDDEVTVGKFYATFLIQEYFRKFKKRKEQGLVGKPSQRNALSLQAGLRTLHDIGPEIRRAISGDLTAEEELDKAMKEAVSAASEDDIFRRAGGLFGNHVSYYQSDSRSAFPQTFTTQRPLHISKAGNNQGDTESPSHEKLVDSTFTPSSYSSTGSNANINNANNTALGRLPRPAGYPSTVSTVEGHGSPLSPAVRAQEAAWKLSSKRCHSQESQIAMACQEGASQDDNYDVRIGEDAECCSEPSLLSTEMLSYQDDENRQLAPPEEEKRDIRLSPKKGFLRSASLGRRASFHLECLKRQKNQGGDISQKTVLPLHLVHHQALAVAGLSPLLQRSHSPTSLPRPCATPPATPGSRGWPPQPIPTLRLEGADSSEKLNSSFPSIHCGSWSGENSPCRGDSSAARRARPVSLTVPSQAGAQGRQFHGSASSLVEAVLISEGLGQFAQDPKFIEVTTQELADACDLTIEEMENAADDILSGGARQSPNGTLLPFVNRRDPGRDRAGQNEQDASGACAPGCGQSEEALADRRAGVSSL

Substance | current remaining at the end of a 50 ms test pulse to +20 mV, percent of peak current (inactivation) (% of peak current) [1] | peak barium current (N-type), two-electrode voltage clamp in Xenopus oocytes [1] [µA] | L-type peak current amplitude at +30 mV, α1C/α2δ-2 against α1C alone, Xenopus oocytes [2] [%] | T-type current amplitude, α1G/α2δ-2 against α1G alone, Xenopus oocytes [3] [%] | fold increase of N-type current magnitude [1] [fold]
α2δ-2 subunit expressed from cRNA in Xenopus oocytes (from UniProt Q9NY47 19-1150) | 59 | 7.6 | 201 | 176 | –
rabbit skeletal muscle α2δ-1 subunit expressed from cRNA in Xenopus oocytes (from UniProt P13806 27-1106) | 33 | 9.1 | – | – | 9
